The values below come from FireProtDB (doi:10.1110/ps.8.9.1843).

For the series the following is noted: CD, whole UniProt chain shown; for denaturant m value / denaturant midpoint (higher = more stable): Aspergillus oryzae (strain ATCC 42149 / RIB 40), 25 °C, Urea.
Setting [1] is: Kitasatospora aureofaciens, pH 7, Thermal, MOPS 30 mM.

B1: Guanyl-specific ribonuclease T1 wild type, P00651 (protein)
chain: MMYSKLLTLTTLLLPTALALPSLVERACDYTCGSNCYSSSDVSTAQAAGYQLHEDGETVGSNSYPHKYNNYEGFDFSVSSPYYEWPILSSGDVYSGGSPGADRVVFNENNQLAGVITHTGASGNNFVECT
On to B1, for which, under “pH 2.5, glycine 30 mM”, the denaturant m value stood at 1.59 kcal/mol/M and the “denaturant midpoint (higher = more stable)” value came out at 3.66 M. Besides, where the note is “pH 7, MOPS 30 mM”, the denaturant m value came out at 1.23 kcal/mol/M and the “denaturant midpoint (higher = more stable)” value was 5.23 M.

B2: Guanyl-specific ribonuclease Sa wild type, P05798 (protein)
chain: DVSGTVCLSALPPEATDTLNLIASDGPFPYSQDGVVFQNRESVLPTQSYGYYHEYTVITPGARTRGTRRIITGEATQEDYYTGDHYATFSLIDQTC
As usually defined, the Tm is the temperature at which the thermal transition is half complete. As for B2, under setting [1], the Tm amounted to 47.2 °C and the “unfolding enthalpy (van 't Hoff)” value amounted to 91 kcal/mol.
